B1: Serine/threonine-protein kinase PINK1, mitochondrial (Homo sapiens), Q9BXM7-1 (parent)
chain: MAVRQALGRGLQLGRALLLRFTGKPGRAYGLGRPGPAAGCVRGERPGWAAGPGAEPRRVGLGLPNRLRFFRQSVAGLAARLQRQFVVRAWGCAGPCGRAVFLAFGLGLGLIEEKQAESRRAVSACQEIQAIFTQKSKPGPDPLDTRRLQGFRLEEYLIGQSIGKGCSAAVYEATMPTLPQNLEVTKSTGLLPGRGPGTSAPGEGQERAPGAPAFPLAIKMMWNISAGSSSEAILNTMSQELVPASRVALAGEYGAVTYRKSKRGPKQLAPHPNIIRVLRAFTSSVPLLPGALVDYPDVLPSRLHPEGLGHGRTLFLVMKNYPCTLRQYLCVNTPSPRLAAMMLLQLLEGVDHLVQQGIAHRDLKSDNILVELDPDGCPWLVIADFGCCLADESIGLQLPFSSWYVDRGGNGCLMAPEVSTARPGPRAVIDYSKADAWAVGAIAYEIFGLVNPFYGQGKAHLESRSYQEAQLPALPESVPPDVRQLVRALLQREASKRPSARVAANVLHLSLWGEHILALKNLKLDKMVGWLLQQSAATLLANRLTEKCCVETKMKMLFLANLECETLCQAALLLCSWRAAL
partner: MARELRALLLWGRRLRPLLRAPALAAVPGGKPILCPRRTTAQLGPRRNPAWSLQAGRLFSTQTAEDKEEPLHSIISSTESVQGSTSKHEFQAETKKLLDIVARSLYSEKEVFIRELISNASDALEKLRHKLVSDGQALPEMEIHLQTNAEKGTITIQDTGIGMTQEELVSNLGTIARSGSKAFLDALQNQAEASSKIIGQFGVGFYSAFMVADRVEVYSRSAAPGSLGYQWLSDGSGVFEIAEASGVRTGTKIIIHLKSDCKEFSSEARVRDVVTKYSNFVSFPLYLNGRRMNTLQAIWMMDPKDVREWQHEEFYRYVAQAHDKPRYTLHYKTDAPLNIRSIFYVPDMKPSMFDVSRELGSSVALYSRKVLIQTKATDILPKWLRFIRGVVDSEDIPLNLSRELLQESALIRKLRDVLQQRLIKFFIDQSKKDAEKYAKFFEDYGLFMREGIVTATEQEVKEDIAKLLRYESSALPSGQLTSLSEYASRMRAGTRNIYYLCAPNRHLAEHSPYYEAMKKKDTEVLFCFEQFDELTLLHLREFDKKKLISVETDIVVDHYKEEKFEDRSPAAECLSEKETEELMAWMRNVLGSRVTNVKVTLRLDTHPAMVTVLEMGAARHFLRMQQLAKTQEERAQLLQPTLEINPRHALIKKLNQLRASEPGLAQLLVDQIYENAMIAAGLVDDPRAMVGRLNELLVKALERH

Variants of: B1
Settings: with trap1_human TRAP1, Q12931

Effect of a mutation on the interaction, decreasing interaction:
D384A
D362A
G309D
K219A;D362A;D384A
L347P
